Source: publication PMC3948464 (Nature Communications, 2014)

Target: GST-AK2 (glutatione S-transferase-adenylate kinase 2) (human, UniProt P54819 1-239)
Experiment: SEC

B1: His-DUSP26 (enzyme)
chain: MCPGNWLWASMTFMARFSRSSSRSPVRTRGTLEEMPTVQHPFLNVFELERLLYTGKTACNHADEVWPGLYLGDQDMANNRRELRRLGITHVLNASHSRWRGTPEAYEGLGIRYLGVEAHDSPAFDMSIHFQTAADFIHRALSQPGGKILVHCAVGVSRSATLVLAYLMLYHHLTLVEAIKKVKDHRGIIPNRGFLRQLLALDRRLRQGLEA
binding result: binds
